From patent publication US20140302028A1 come the findings set out here.

In assay [1] the target is recombinant mouse FcRn (R&D Systems) (mouse) (UniProt Q61559). In words: SPR (Biacore T100), mouse FcRn immobilised, pH 6, two-state model, complex stabilization. Background: In SPR one partner is held on a chip, and binding of the other changes the refractive index at the surface.
The target of assay [2] is recombinant human FcRn (Sino Biological Inc.) (human) (UniProt P55899). Kind of assay: SPR (Biacore T100), human FcRn immobilised, pH 6, two-state model.
Assay [3] has the same target. Kind of assay: SPR (Biacore T100), human FcRn immobilised, pH 6, two-state model, complex formation.
The target is the same in assay [4]. Kind of assay: SPR (Biacore T100), human FcRn immobilised, pH 6, two-state model, complex stabilization.
For assay [5], the target named is recombinant mouse FcRn (R&D Systems) (mouse) (UniProt Q61559). Kind of assay: SPR (Biacore T100), mouse FcRn immobilised, pH 6, two-state model, complex formation.
The target is the same in assay [6]. In words: SPR (Biacore T100), mouse FcRn immobilised, pH 6, two-state model.

Usually Kd stands for a measure of binding affinity in units of concentration. Broadly, the koff is the rate constant with which the complex falls apart. What is called kon is the rate constant with which the complex forms.

UniProt P55899, sequence (P55899 24-297 limits assumed, chain 1 of 2): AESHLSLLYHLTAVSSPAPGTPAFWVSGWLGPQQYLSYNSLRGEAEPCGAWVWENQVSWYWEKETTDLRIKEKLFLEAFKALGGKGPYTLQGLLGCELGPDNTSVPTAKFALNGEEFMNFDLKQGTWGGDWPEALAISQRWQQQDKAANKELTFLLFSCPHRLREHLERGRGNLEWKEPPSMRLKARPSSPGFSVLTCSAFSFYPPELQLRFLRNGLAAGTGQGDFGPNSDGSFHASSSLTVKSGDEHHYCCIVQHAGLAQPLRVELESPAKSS
UniProt P55899, sequence (chain, as listed by the source limits assumed, chain 2 of 2): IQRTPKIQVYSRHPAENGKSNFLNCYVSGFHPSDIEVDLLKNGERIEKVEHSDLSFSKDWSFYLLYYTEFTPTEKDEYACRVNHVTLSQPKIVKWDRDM
UniProt Q61559, sequence (Q61559 22-297 limits assumed, chain 1 of 2): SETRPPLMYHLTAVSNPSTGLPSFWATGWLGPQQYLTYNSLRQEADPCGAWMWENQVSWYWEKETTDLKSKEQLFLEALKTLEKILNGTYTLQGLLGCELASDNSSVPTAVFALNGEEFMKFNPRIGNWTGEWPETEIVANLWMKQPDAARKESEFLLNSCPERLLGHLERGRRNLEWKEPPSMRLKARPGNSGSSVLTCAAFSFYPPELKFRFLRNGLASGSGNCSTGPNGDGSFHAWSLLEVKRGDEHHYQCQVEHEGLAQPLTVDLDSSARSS
UniProt Q61559, sequence (chain, as listed by the source limits assumed, chain 2 of 2): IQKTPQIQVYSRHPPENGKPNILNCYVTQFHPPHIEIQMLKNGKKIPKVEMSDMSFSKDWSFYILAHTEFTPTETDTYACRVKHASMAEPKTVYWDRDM

As for HUMIRA ® (antibody), the kd (Complex Stabilization) in assay [1] was found to be 0.000107 s⁻¹; in assay [4] it was 0.00155 s⁻¹. Besides, the Kd amounted to 34 nM in assay [2] and 6.66 nM in assay [6]. In addition, the koff was 0.313 s⁻¹ in assay [3] and 0.0153 s⁻¹ in assay [5]. For the same substance, the kon in assay [3] turned out to be 5.99e+06 M⁻¹ s⁻¹; in assay [5] it was 159000 M⁻¹ s⁻¹.
